Laboratory results reported in patent US20020015981A1 (Amgen, published 2002).

Target: T1, human α2-polyHis-tag (human, UniProt Q96T91 24-129)
T1 construct: also called human α2 polypeptide; alpha-2; not shown: polyHis tag
T1 sequence (looked up): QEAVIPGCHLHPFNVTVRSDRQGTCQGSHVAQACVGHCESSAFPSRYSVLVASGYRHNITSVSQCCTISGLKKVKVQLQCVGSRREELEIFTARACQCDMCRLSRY
Test: heterodimerization assay: co-transfection, immunoprecipitation, Western blot
Experimental: A human α2-polyHis-tag mammalian expression vector and a human β10-FLAG-tag mammalian expression vector were co-transfected into 293 cells and serum free conditioned media was harvested after 72 hours. Immunoprecipitation was done using anti-FLAG M2-Agarose affinity beads (Cat# A1205, Sigma, St. Louis, Mo.). A Western blot of this immunoprecipitate was probed with affinity purified anti-α2 rabbit polyclonal antibodies (example 4) that had been conjugated to Horse Radish Peroxidase (Linx HRP Rapid Protein Conjugation Kit, cat# K8050-01, Invitrogen Corp., Carlsbad, Calif.). A strong α2-polyHis-tag band was observed using the ECL Western Blot detection kit (cat#RPN 2106, Amersham Pharmacia Biotech, Piscataway, N.J.). […] No α2-polyHis-tag band was observed if either of these 2 components was left out of the experiment or if plain agarose beads (i.e. without anti-FLAG antibodies) were used for the immunoprecipitation step.

B1: human β10-FLAG-tag (ligand)
chain: ASSGNLRTFVGCAVREFTFLAKKPGCRGLRITTDACWGRCETWEKPILEPPYIEAHHRVCTYNETKQVTVKLPNCAPGVDPFYTYPVAIRCDCGACSTATTECETI
notes: Secreted from transfected 293 cells; the cleavage site is predicted, not determined; also called human β10 polypeptide; beta-10; not shown: FLAG tag
binding result: binds
